The values below come from patent US20240376222A1 (University of Texas, published 2024).

Read-outs that look alike come from different tables or passages of the source.

In experiment [1] the target is T1, muTfR extracellular domain (ECD), His-tagged (mouse, UniProt Q62351 89-763).
T1 construct: extracellular domain; Bought protein (Sino Biological); also called muTfR-His; muTfR ECD
Briefly: BLI (Octet), IgG on Protein A sensor, muTfR-ECD-His in solution, 1:1 global fit. From the text:
FIG. 3. Illustrates the Kinetics and binding affinities of murine transferrin receptor (TfR) antibodies and represents the kinetic binding graphs determined using BLI method with Octet 96-Red instrument. Protein A sensors (Fortebio) were used to capture anti-TfR IgG. Individual purified TfR antibodies were loaded onto Protein A sensors and subject to a solution flow containing muTfR-ECD-His at designated concentrations: (indicated by the colored lines under each graphs) and for a defined time (shown in X-axis). After binding, the sensors were incubated in blank kinetics buffer to allow free dissociation of TfR for designated time.
FIG. 4: Illustrates the binding kinetics parameters were calculated by the software from Fortebio (version 11) using 1:1 binding model with global fitting. KD is calculated by kdis/kon as determined from the FIG. 3 data.
On the technique in general: In BLI a coated tip is dipped into the sample, and binding shifts an interference pattern.

The target in experiment [2] is T2, human TfR extracellular domain (ECD) (human, UniProt P02786 89-760).
T2 construct: extracellular domain; Bought protein; also called HuTfR; huTfR
Briefly: phage ELISA, scFv phage on coated TfR, anti-M13-HRP, single point. For orientation: An ELISA detects its analyte on a solid surface through an enzyme-linked reagent.

For experiment [3], the target named is T3, cynomolgus TfR extracellular domain (ECD) (cynomolgus).
T3 chain: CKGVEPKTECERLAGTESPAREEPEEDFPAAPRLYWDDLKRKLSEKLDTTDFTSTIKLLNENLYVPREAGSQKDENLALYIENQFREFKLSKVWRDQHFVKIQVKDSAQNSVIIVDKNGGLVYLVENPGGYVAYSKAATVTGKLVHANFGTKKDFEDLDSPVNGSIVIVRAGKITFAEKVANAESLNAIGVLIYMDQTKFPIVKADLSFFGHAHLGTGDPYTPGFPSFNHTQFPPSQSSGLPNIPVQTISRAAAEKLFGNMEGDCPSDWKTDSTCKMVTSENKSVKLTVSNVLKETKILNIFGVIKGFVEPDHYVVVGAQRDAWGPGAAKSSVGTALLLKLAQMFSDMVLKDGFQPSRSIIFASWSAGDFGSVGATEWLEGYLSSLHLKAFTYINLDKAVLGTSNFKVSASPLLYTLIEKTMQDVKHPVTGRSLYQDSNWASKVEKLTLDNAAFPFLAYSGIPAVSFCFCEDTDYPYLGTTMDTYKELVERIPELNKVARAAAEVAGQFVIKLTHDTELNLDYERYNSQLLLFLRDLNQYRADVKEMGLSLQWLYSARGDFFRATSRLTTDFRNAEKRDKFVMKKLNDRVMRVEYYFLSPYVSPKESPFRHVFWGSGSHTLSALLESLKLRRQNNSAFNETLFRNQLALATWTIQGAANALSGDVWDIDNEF
The experiment can be described thus: Octet BLI, serial dilution of antigen.

For experiment [4], the target named is T2, human TfR extracellular domain (ECD). Briefly: Octet BLI, serial dilution of antigen.
Experiment [5] has the same target. Briefly: BLI (Octet), IgG on Protein A sensor, huTfR-ECD-His in solution, 1:1 global fit. On the procedure:
FIG. 1. Illustrates the Kinetics and binding affinities of human transferrin receptor (TfR) antibodies and represents the kinetic binding graphs determined using BLI method with Octet 96-Red instrument. Protein A sensors (Fortebio) were used to capture anti-TfR IgG. During all incubation steps, sample temperature was set to room temperature with 1000 rpm shaking. Individual purified TfR antibodies were loaded onto sensors. After antibody capture, the antibody-loaded sensors were subject to a solution flow containing huTfR-ECD-His at designated concentrations: (indicated by the colored lines under each graphs) and for a defined time (shown in X-axis). After binding, the sensors were incubated in blank kinetics buffer to allow free dissociation of TfR for designated time. The binding kinetics parameters were calculated by the software from Fortebio (version 11) using 1:1 binding model with global fitting.

Experiment [6] has the same target. The experiment can be described thus: phage ELISA, scFv phage on coated TfR, anti-M13-HRP, single point. The source holds these as a separate data set.

T1 sequence (Q62351 89-763): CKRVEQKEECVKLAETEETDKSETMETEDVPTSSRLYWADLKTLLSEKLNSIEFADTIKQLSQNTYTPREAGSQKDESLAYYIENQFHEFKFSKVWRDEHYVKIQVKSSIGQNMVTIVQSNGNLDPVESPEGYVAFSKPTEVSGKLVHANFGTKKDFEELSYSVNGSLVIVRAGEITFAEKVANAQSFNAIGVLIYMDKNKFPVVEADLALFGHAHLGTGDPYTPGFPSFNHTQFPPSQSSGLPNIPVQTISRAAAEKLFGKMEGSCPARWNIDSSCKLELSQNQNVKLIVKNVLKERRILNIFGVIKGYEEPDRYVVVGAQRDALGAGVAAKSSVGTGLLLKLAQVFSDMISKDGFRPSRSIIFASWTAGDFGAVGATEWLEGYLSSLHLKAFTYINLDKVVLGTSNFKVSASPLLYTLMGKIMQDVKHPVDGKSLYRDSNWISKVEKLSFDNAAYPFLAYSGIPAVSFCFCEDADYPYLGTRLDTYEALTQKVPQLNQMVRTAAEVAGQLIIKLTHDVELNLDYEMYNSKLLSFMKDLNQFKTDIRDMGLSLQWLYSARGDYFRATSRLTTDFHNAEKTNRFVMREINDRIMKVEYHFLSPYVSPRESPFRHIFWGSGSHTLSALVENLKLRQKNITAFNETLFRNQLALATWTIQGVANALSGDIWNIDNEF

B1: Ab5 (antibody, V domains shown)
VH: QVQLVESGGGLVQPGRSLRLSCAASGFTFDDYAMHWVRQAPGKGLEWVSGISWNSGSIGYADSVKGRFTISRDNAKNSLYLQMNSLRAEDTALYYCAKVSSQSGSVAGFDYWGQGTLVSVSS
VL: QPVLTQPPSASGTPGQRVTISCSGSSSNIGANYVYWYQQLPGTAPKLLIYRNNQRPSGVPDRFSGSKSGTSASLAIGGLRSEDEADYYCAGWDDSLSGVLFGGGTKVTVL
With B1, in experiment [1], the Kd – broadly, the constant that tells how readily two partners part at equilibrium – was 2.58 nM; the dissociation rate constant (koff) (as a rule, a measure of how fast the partners let go of each other) is 0.000135 s⁻¹; the kon (usually the rate constant with which the complex forms) was determined as 52300 M⁻¹ s⁻¹.

B2: 8A5 (antibody, V domains shown)
VH: QVQLVQSGAEVKKPGESLRISCKGSGYSFTSYWISWVRQMPGKGLEWMGRIDPSDSYTNYSPSFQGHVTISADKSISTAYLQWSSLKASDTAIYYCARARTWFDAFDIWGQGTTVTVSS
VL: QAVVTQPPSASGTPGQRVTISCSGGSSNIGRYSVNWYQQLPGTAPKLLINSNIQRPSGVPDRFSGSKSGTSASLAISGLQSEDEADYHCAAWDDSLKGWVFGGGTKVTVL
notes: Human IgG1, converted from a phage scFv clone
On to B2, for which, in experiment [2], the binding result was “binds”.

B3: Ab59 (antibody, V domains shown)
VH: QVQLVESGGGVVQPGRSLRLSCAASGFTFSSYAMHWVRQAPGKGLEWVAVISYDGSNKYYADSVKGRFTISRDNSKNTLYLQMNSLRAEDTAVYYCARGGPYYDFWSDGMDVWGQGTMVTVSS
VL: QSVLTQPHSVSESPGKTVTISCTRSSGSIASNYVQWYQQRPGSSPTTVIYEDNQRPSGVPDRFSGSIDSSSNSASLTISGLKTEDEADYYCQSYDSSNYVFGTGTKVTVL
Turning to B3, in experiment [1], the dissociation constant (Kd) was determined as 2.17 nM, the off-rate constant (koff) was 0.000162 s⁻¹ and the on-rate constant (kon) amounted to 74900 M⁻¹ s⁻¹.

B4: Ab2 (antibody, V domains shown)
VH: QVQLVQSGAEVKKPGSSVKVSCKASGGTFSSYAISWVRQAPGQGLEWMGGIIPIFGTANYAQKFQGRVTITADESTSTAYMELSSLRSEDTAVYYCARFAFFSLASEDYWGQGTLVIVSS
VL: not shown
Turning to B4, in experiment [1], binding was put at a Kd of 8.37 nM, the koff turned out to be 0.000145 s⁻¹ and the kon was 17300 M⁻¹ s⁻¹.

B5: 7B10 (antibody, V domains shown)
VH: QVQLVQSGAEVKKPGASVKVSCKASGYTFTSYGISWVRQAPGQGLEWMGWISAYNGNTNYAQKLQGRVTMTTDTSTSTAYMELRSLRSDDTAVYYCARDQKLLHILYYYGMDVWGQGTTVIVSS
VL: DIVMTQSPLSLSVTPGEPASISCRSSQSLLHSNGNNYLDWYLQKPGQSPQLLIYLGSNRASGVPDRFSGSGSGTDFSLKINKVEAEDVGVYYCMQALQTAYTFGQGTKLEIK
notes: as for B2
In the case of B5, the binding result in experiment [2] is recorded as “binds”.

B6: 7A1 (antibody, V domains shown)
VH: QVQLVQSGAEVKKPGSSVKVSCKASGGTFSSYAISWVRQAPGQGLEWMGGIIPIFGTANYAQKFQGRVTITADESTSTAYMELSSLRSEDTAVYYCARSGYYNDAFDIWGQGTMVTVSS
VL: QSALTQPASVSGSPGQSITISCTGTNSDIGGYNYVSWYQQHPGKAPKLMIYEVSNRPSGVSNRFSGSKSGNTASLTISGLQAEDEAHYYCSSYTSSSTLVFGGGTKVTVL
notes: as for B2
Consider B6, for which the binding result in experiment [2] is on record as “binds”.

B7: 4G1 (antibody, V domains shown)
VH: EVQLLESGGGLIQPGGSLRLSCAASGFSVSSYYMNWVRQAPGKGLEWVSNTYTDGSTSYADSVGGRFSVSRDNSKNTLHLQMNSLRVEDTAVYYCAREGDGYNSGGLDYWGQGTLVTVSS
VL: DIQLTQSPASLSASLGDRVTITCRASQSIGTYLNWYQQRPGQAPKLLIFGTSSLQSGVPSRFSGSGSGTDFTLTISSLQPEDLATYYCQQTYITPRTFGQGTKVEIK
notes: as for B2
Regarding B7, in experiment [3], the Kd is less than 0.001 nM, the koff is less than 1e-07 s⁻¹ and the kon is 94500 M⁻¹ s⁻¹. In experiment [4], this molecule had a dissociation constant (Kd) of less than 0.001 nM, a dissociation rate constant (koff) of less than 1e-07 s⁻¹ and an association rate constant (kon) of 79900 M⁻¹ s⁻¹.

B8: Ab42 (antibody, V domains shown)
VH: QVQLVQSGAEVKKPGSSVKVSCKASGGTFSSYAISWVRQAPGQGLEWMGGIIPIFGTANYAQKFQGRVTITADESTSTAYMELSSLRSEDTAVYYCARGATRGMDVWGQGTLVTVSS
VL: DIVMTQSPSSLSASVGDRVTITCRASQSISNFLNWYQQKPGKAPKLLIYAASSLQSGVPSRFSGSRSGTDFTLTISSLQPEDFATYYCQQSSSIPLTFGGGTKLEIK
With B8, in experiment [1], the affinity, expressed as Kd, was 2.09 nM; the off-rate constant (koff) was 0.00013 s⁻¹; the kon was determined as 62000 M⁻¹ s⁻¹.

B9: 5B6 (antibody, V domains shown)
VH: PVLLVQSGAEVKKPGSSVKVSCKASGGTFSSYAISWVRQAPGQGLEWMGGIIPIFGTANYAQKFQGRVTITADESTSTAYMELSSLRSEDTAVYYCAVSIFGVVIPLDYWGQGTLVIVSS
VL: QPVLTQSPSVSLAPGQTAKITCGGTNIGRKSVHWYQQKPGQAPVMVIYYDSDRPSGIPERFAGSNSGNTATLTISRVEAGDEAVYYCQVWDSSSASGVFGGGTKVTVL
notes: as for B2
In experiment [3], B9 gave a Kd of less than 0.001 nM, an off-rate constant (koff) of less than 1e-07 s⁻¹ and an on-rate constant (kon) of 87900 M⁻¹ s⁻¹. Also, in experiment [4], binding was characterised by a dissociation constant (Kd) of 0.575 nM, the koff worked out at 2.98e-05 s⁻¹ and the on-rate constant (kon) was 51800 M⁻¹ s⁻¹.

B10: Ab30 (antibody, V domains shown)
VH: EVQLVQSGGGLAQPGGSLRLSCAASGFTFSIYSMNWVRQAPGKGLEWVSYIGGGGTSIYYADSVKGRFTISRDNAKNSLSLQMNSLRAEDTGVYYCARGKPATGFDYWGQGTLVSVSS
VL: QSVLTQPRSVSGSPGQSVTISCTGTSSDVGGYNYVSWYQQHPGKAPKLMISEVSKRPSGVPDRFSGSKSGNTASLTVSGLQAEDEADYYCSSYAGGYTPYVFGTGTKVTVL
In experiment [5], B10 showed a Kd of less than 0.001 nM, a koff of less than 1e-07 s⁻¹ and an association rate constant (kon) of 119000 M⁻¹ s⁻¹.

B11: muTfR Ab4 (antibody, V domains shown)
VH: EVQLVESGGGLVKPGGSLRLSCAASGFTFSWYTMNWVRQAPGKGLEWVSSISSSSSDMYYADSVKGRFTISRDNAKNSLYLQIDSLRAEDTAVYYCARAHYYDSTSLNHFYGMDVWGQGTTVTVSS
VL: QSVLTQPPSVSVAPGKTARITCGGNNIGSRTVHWYQQRPGQAPMLVVSDDNDRPSGIPERFSGSNSGNTATLTITRVEAGDEADYYCQVWDSSSDHLVFGGGTQLTVL
modifications: Biotinylated when used as the probe in the competition ELISA; the sites are not stated and the letters do not carry them.
notes: also called anti-muTfR Ab4; biotinylated Ab4
In experiment [1], B11 had a Kd of 5.03 nM, a koff of 0.000391 s⁻¹ and a kon of 77700 M⁻¹ s⁻¹.

B12: 8G5 (antibody, V domains shown)
VH: QVQLVQSGAEVKKPGASVKVSCKASGYTFTSYGISWVRQAPGQGLEWMGWISAYNGNTNYAQKLQGRVTMTTDTSTSTAYMELRSLRSDDTAVYYCARVGYYYYGMDVWGQGTTVTVSS
VL: QSVLTQPPSVSGAPGQRVTISCTGSSSNIGAGFDVHWYQQLPGTAPKLLIYANSNRPSGVPDRFSASKSGTSASLAITGLQAEDEADYYCQSYDRSLSGYVFGSGTKVTVL
notes: as for B2
Turning to B12, in experiment [2], the binding result was “binds”.

B13: 1B2 (antibody, V domains shown)
VH: QVQLVQSGAEVKKPGESLRISCKGSGYSFTSYWISWVRQMPGKGLEWMGRIDPSDSYTNYSPSFQGHVTISADKSISTAYLQWSSLKASDTAMYYCARHPLAYCGGDCQRGFDYWGQGTLVTVSS
VL: QPVLTQPPSVSVSPGQTARITCSGDKLREDLTSWYQQKPGQSPVLVIYQDSKRPSGIPARFSGSISGSTATLTISGTQAVDEADYYCQAWDNSVDYVFGTGTKVTVL
notes: as for B2
As to B13, the binding result in experiment [6] is on record as “binds”.

B14: Ab1 (antibody, V domains shown)
VH: QVQLMQSGAEVKKPGSSVKVSCKASGGTFSSYAISWVRQAPGQGLEWMGRIIPILGIANYAQKFQGRVTITADKSTSTAYMELSSLRSEDTAVYYCARDRDTMVRGGMDVWGQGTMVTVSS
VL: QSALNQPPSASGSPGQSVTISCTGTGSDIGGHNYVSWYQQHPGKAPKLMIYDVSKRPSRVPDRFSGSKSGNTASLTVSGLQAEDEADYYCSSYAGSNVVFGAGTKVTVL
For the molecule B14, in experiment [5], binding was put at a Kd of 3.46 nM, the koff was 0.000398 s⁻¹ and the kon came to 115000 M⁻¹ s⁻¹.
